Experimental data from the DeepSol protein solubility set.

assay: soluble on expression in E. coli; label from the status in PepcDB or PDB records

Sequence | soluble on expression in E. coli
MGSDKIHHHHHHMIELKNVSMIFNPGTVNENQAISNISLKVREGDFITVIGSNGAGKSTLFNLIAGTITPSSGSIFLNDRNITREPEYKRARYIGRIFQNPLLGTASTMSLEDNMMITYKKGFKWLKRSLNHKMREYFRTELVQLKMGLEDRMKENLALFSGGQRQALTLLMMVLSRPDLILLDEHTAALDPKNAQIVLELTDKFIREYNLTAMMITHNMSHAIEYGNRLLMMDKGEIIFEAEGEEKRALTVEKLIDKFHQIRHTSFENDRTLLSDD | not soluble
QIVLTQSPAIMSASLGDRVTMTCTASSSVSSSYLHWYQQKPGSSPKLWIYSTSNLASGVPARFSGSGSGTSYSLTISSMEAEDAATYYCHQFHRSLTFGSGTKLE | soluble
GNSKKHNLILIGAPGSGKGTQCEFIKKEYGLAHLSTGDMLREAIKNGTKIGLEAKSIIESGNFVGDEIVLGLVKEKFDLGVCVNGFVLDGFPRTIPQAEGLAKILSEIGDSLTSVIYFEIDDSEIIERISGRCTHPASGRIYHVKYNPPKQPGIDDVTGEPLVWRDDDNAEAVKVRLDVFHKQTAPLVKFYEDLGILKRVNAKLPPKEVTEQIKKIL | soluble
MGSDKIHHHHHHMKQVDYIIVGQGLAGSCLVQSLWHEKQSVVVIASSERKASSTVAAGLYNPITGKKMLLTWNAAVLFPYLDLFYRSAERELDTTILYPKAIVRPFTDIQAQNDFWAKSTPEIAAFAEPEQNIEKYDPYIWFPYGGLITKHSGYVDVQAFLGAIKQKLVEKDQYIEETFDHAALQFSTNSVAYKGIQAKKIIFAEGFHNTRNPIFNWVPVKGMKGDVLTLDIEAYALKEVVNKHFFIIPLPNGKFRMGSSYIREFEDDAPTEGGLKEITEGAHTILKKPFVVIEQKAGIRPVVPDHRPIIGEHPEQPLALIFNGLGTKGVSIAPYASKTLTNFLLLNQEIDQSMSVNRFNYLYFKQKNN | not soluble
MGSDKIHHHHHHAEITLLKQDPQAGDPLSRLNFTVGGSIRPQFNMMTGDGDKGSYKRNGFDGGTRFRFAADYYLFDDISWISYYELGVNIPALFDWDNHYAEGANNTTRRMLYTGLKSDTWGTLTYGQQNSIYYDVVGVKTDIWDYDMIGQAPGNGINGDYDGSYRSRNMLKYKKTVGDVDLYGSYLFEDSEYLPGNGLRYKRKGGGSVGADYHIMKDLTWGTAWNYTRAEMRDPSSADSKTYDQNIVGTALSWTPDNWTFSFGGGWYQNFLTTKKTDVHNYFAGDAWGIEYFAGYKFPINQYAVKSIQPYFMGDRLEYVNGRNYQRIDNGLGISFQLDYGFRVDYEHVFTSSTDNLGDMNLVRLRYDF | not soluble
MKYSEIFKKRLGCKNTDEVFNYLLSHMKETIKGWDFFVAWEKVMNKVGSVEVVLNILNYLVGKENVVEEFKMLLGRYPEIAEVLPALLALREKSIKVVEPLADNVFNYKEYVFRKKKKYNPEEIEMLAEFAEKTGLLAMFEKKNIKSVVDYAIGVEVGLDTNARKNRSGTAMEMITELFVKKICSMNNYRYLSQATSHKIKTSFGYNVSVDKSERSFDFAIDNGHKLYLVETNYYGGGGSKLKSVAGEFTTLFSFIKKETPEHGFIWITDGKGWETAKKPLRESFDKVDYVLNLDMVQKGILEDIILQGL | soluble
MGSDKIHHHHHHFEERSGVVPCGTPWGQWYQTLEEVFIEVQVPPGTRAQDIQCGLQSRHVALAVGGREILKGKLFDSTIADEGTWTLEDRKMVRIVLTKTKRDAANCWTSLLESEYAADPWVQDQMQRKLTLERFQKENPGFDFSGAEISGNYTKGGPDFSNLEKDGT | not soluble
MSLKYLLLGMMLLGSFAASAGMDPQQLKQTIEQRLGVQVYLVDETPMPGLYMLGTAQGLLYTDARGDYVLQGTMLDLAHDMKNLTMLGLRQQRQLALAQIGERRVQLRAEQERHRVTLFTDLACSSCRTTLAELPVLQARGVSVQLLPVLGTFADLAEAQARWCDPRQFDALDLSDRLPETGCNEILAHHIGLSQWLGIKALPSWVLPNGDLVRGYQSPEQLLKILDHINAPANPSSEGHHHHHH | soluble
MGSDKIHHHHHHMKIALGPISYCWEKDKVYTFYEKAAQSQVHSVYLGETVCSRRREVKLADYLAIARQLNAAGKEVILSTMALIEAQSEIGELKRCVDNGEFIIEANDMAAVHYASEAKLPFICGPSINNYNRASLDILHKLGMVRFVMPYELSRDWLTKVIETQPEFDIEVMGHGYMPLAHSARCFTAKHFGLRKDNCDTLCKTHPKGMLAQTQENQPLLRLNGIQTQSAAYVDLISEIPNMKALGVSYFRVSPTALSSIELADELCITLTQQQVPQSKHSSESCNGYWFGEAGFNQVSP | not soluble
MVRKGRQHTEEALQEPRADRDRDVPNHIRGQAEQGVGARALQEGRGERAPQDTPAARGGRARGEGAREGEDYIARWEKPPRHHRQGDNGGARQDQARAGEVPLDLLILILIGP | soluble
MGHHHHHHSHMCSALVVAAPHSGSGKTTVTAAIARYHRVQGRKVTVFKVGPDFIDPMILRQASGELVYQLDLWLVGEQGCRALLHRAAMDSDLILIEGVMGLFDGTPSSADLAKYFNIPVLGVIDAKAMAQTFAAVTFGLAKFCEDLPFSGVIANRVNTERHAELLSVSLPKAFRFYGRIPKDDTITLPERHLGLVQAQELSDIDVQLDKAASHIANTG | not soluble
MSLTRIKLIATDVDGTFLNQQRTYNHNRFAAQLNRLSSASIRFVVASGNHLGHLKDVFAPTPQVQTFVAENGGLIVDHNRTLAEAQLPLPVVREVVQAILADQTLRPQLLRLSGAHGTYLNRQDRSLDEASQDYFFNNLVRVDDLTQVNDTIYKINGEWPNDSIQTIAAKLNAHFPGLINATASGFGSIDIVAPHMNKAVGLTQLAATWHITPAEIAAFGDNDNDREMLAHVGLGVAMRNGTDSVKEVADLITPHDNNHEGVLDVIDTILADEGHHHHHH | soluble
MSEEDAEKLFLQEKPTRALLFIGSTGKTYASVISKEIDSTFAHTTRILSKMEQSGLIRFTFEGRIKFVELTKYGEEVEAALKDFRNIISEESPLRKEYLTAEEAGKVDKVRESEGKEYREHEEWEEENESEKDLDPLSAEILEKVRNLRNKIEGIYREAAETGQSKEMLSRKLGPNSRDIKKLYNQIENAETPVDETVVLALEETEGLLESYLKGSKPENV | not soluble
SNAMANTSSDWAGAPQNASADGEFVRDTNYIDDRIVADVPAGSEPIAQEDGTFHWPVEAGRYRLVAARACPWAHRTVITRRLLGLENVISLGLTGPTHDVRSWTFDLDPNHLDPVLQIPRLQDAYFNRFPDYPRGITVPALVEESSKKVVTNDYPSITIDFNLEWKQFHREGAPNLYPAELREEMAPVMKRIFTEVNNGVYRTGFAGSQEAHNEAYKRLWVALDWLEDRLSTRRYLMGDHITEADIRLYPTLVRFDAVYHGHFKCGRNKITEMPNLWGYLRDLFQTPGFGDTTDFTEIKQHYYITHAEINPTRIVPVGPDLSGFATPHGREKLGGSPFAEGVTLPGPIPAGEEVKNPEPFQK | soluble
MSFKDFSFEFNGEPIHFSITSHPDKDLVHFNSTGRIGQVIEVIQPPEILSSQLSDQQRVEYELKSLLGNPELPGVELFIRRFVIHFAGTNQRKSALFVFGIDLDGIPNECIAAALQALEENH | not soluble
MSLRLFGTHIQAAIRPVIWLLLWQASSGFANQVRVEVEGDYDQLQENAEILLGEVQDRTADGLRRYASSAAAQVEEAVRALGYYNPTIRWQVNEQDEAPAELVLTIVPGEPVRVRSRQVDIQGPGADDPDLVQSLPERPREGDILNHGEYDGLRQAIQNRAGRLGYFDGEYETRKLKVDPDANAADILLTYRTGERYQLGEVTFLEGHGFDEQLLRQFVTTEPGEPFHADKVARLNRDLSNSGYFSGVDIDASPSQAEDRVIPVTIGLTPRPPRSVSAGVGFSTDVGPRFRGNWREHYINSMGHKRGADTELSELRQSVSGWYELPLDPPMTDSIRLGTGYQREHVEDVESERLTFGQQWNHQLDDGWMQVLSMRWEGERFRIGDGERGTSSLLLPGVSYSKLQADSPLDPSRGFRLQLDVTGAHRAVLSDADILHVNLLAKGLYTLADNHRFLARFNFGGVATNNFSDVPPSLRFFAGGDQSVRGYGYETLSPEDSDGVAVGGRYLIVGSAEYQYEFARNWRVAAFVDEGNAVNDVFDPLATGVGVGIRWVSPVGPLRLDVARGLNEELGGGWRIHFSMGPEEGHHHHHH | not soluble
MPNDLKKELRELKETLEYLKKSFEVISQLAQAYIRLLNVYAEYGDLGIDVVIPEIKHDPIARDIVKILFDLRRANVSQIARELKGRRGKASRNTVRKKLKELEKLGVVKEVPGERGSVYTLSREVVKKWLDLIGIPINLLLEHHHHHH | soluble
MNKLYIGNLSENAAPSDLESIFKDAKIPVSGPFLVKTGYAFVDCPDESWALKAIEALSGKIELHGKPIEVEHSVPKRQRIRKLQIRNIPPHLQWEVLDSLLVQYGVVESCEQVNTDSETAVVNVTYSSKDQARQALDKLNGFQLENFTLKVAYIPDEMAAQQNPLQQPRGRRGLGQRGSSRQGSPGSVSKQKPCDLPLRLLVPTQFVGAIIGKEGATIRNITKQTQSKIDVHRKENAGAAEKSITILSTPEGTSAACKSILEIMHKEAQDIKFTEEIPLKILAHNNFVGRLIGKEGRNLKKIEQDTDTKITISPLQELTLYNPERTITVKGNVETCAKAEEEIMKKIRESYENDIASMNLQAHLIPGLNLNALGLFPPTSGMPPPTSGPPSAMTPPYPQFEQSETETVHLFIPALSVGAIIGKQGQHIKQLSRFAGASIKIAPAEAPDAKVRMVIITGPPEAQFKAQGRIYGKIKEENFVSPKEEVKLEAHIRVPSFAAGRVIGKGGKTVNELQNLSSAEVVVPRDQTPDENDQVVVKITGHFYACQVAQRKIQEILTQVKQHQQQKALQSGPPQSRRK | soluble
MGSDKIHHHHHHMSKMLTLAVRAHDVGTKISPVELAKKIAETNITSIQFALGISYPEYASAAVLSPGLGSQLKNIFEDEKITISVLSCYINLIHPDLEEREKRLHQFETYIRYDSMFGAKIVATETGSIYETIYYTEDNYTEEAYEEVLFSVRRLCREAEKYGIIVGIEPGINHPIHTIEKMQRLIDEVASTNLGIILDPTNLIRVDIDKTYLEIVEEAFECFGEKIVAFHLKDFIIRNQQIFPVAIGEGQVPLTETIQFLNKHKPGLFTIFEETPFEKIASAYQKVSQYHSI | not soluble
MAHHHHHHMVKETGLYDELGISPDATEPQIRSAYRRKALQYHPDKNSGDPAAAEKFKKVAEAYEILSDAERRKQYDTFGRNGPGGAAGGSGGVPGGGFGSSFGPGTDPMDIFSSFFGFASGGGPGASRQQRPAKPSFILVVLQCSLEELYCGTVKVLQVRRRRLCPSCHGHGTSSGRPSPVCPQCKGNKTVTKALNFGGLTAYQQCRCDHCEGLGKLPIRLPCARCGPVYDAHQRAPLSGTRKPDPLPRGVVVDEKMIKVSIEPGTEDSDALNYVGQGDELPGFGAVGDVLVVIEQLPHPHYHRLNSTDLLLSNCRVPLGCLFRDAFSIPIELLDGRVLRLATPLREGNVPHFLFDSQHVFVVDGEGMPLKGRKGGGAAADANHDDSGAADDVAYRKKGKLYLCVNVVFPSSLTPAQVDIIAKALGGDHERDPAATGEDAGRVVTLQPHHSPAPSWYTVDTEGNAWYQPNGPATAKKKRKATSTTA | not soluble
